The text below walks through data of patent publication US20160340421A1 (Regeneron, published 2016).

Experiment [1] deals with T1, hGDF11 homodimer (human, UniProt O95390 299-407).
T1 sequence (looked up): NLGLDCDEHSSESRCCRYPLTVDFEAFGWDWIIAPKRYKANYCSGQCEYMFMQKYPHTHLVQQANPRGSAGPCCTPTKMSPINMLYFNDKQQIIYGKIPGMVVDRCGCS
Nature of the experiment: cell-based or functional assay.

Experiment [2] has as its target T2, Human GDF8 homodimer (mature human Growth and Differentiation Factor-8) (human, UniProt O14793 267-375).
T2 sequence: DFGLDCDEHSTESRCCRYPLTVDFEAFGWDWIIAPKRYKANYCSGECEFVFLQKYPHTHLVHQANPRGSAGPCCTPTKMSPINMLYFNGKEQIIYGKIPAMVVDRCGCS
Nature of the experiment: cell-based or functional assay.

In experiment [3] the target is T1, hGDF11 homodimer. The experiment in a line: SPR, antibody captured, 25 nM antigen. The procedure:
(§1) Equilibrium dissociation constants (KD values) for antigen binding to selected antibodies were determined by surface kinetics using a real-time biosensor surface plasmon resonance assay (BIACORE™ 2000). Each selected antibody was captured on either a goat anti-mouse IgG polyclonal antibody surface or a goat anti-hFc polyclonal antibody (Jackson Immuno Research Lab) surface created through direct chemical coupling to a BIACORE™ chip to form a captured antibody surface. Human GDF8 homodimer, hGDF11 homodimer, or hGDF5 homodimer at 25 nM was injected over the captured antibody surfaces, and antigen-antibody binding and dissociation were monitored in real time at room temperature. Kinetic analysis was performed to calculate KD, dissociation rate constants (kd), association rate constants (ka) and half-life of antigen/antibody complex dissociation (Table 2).

Experiment [4] deals with T2, Human GDF8 homodimer (mature human …). Nature of the experiment: SPR, antibody captured, 25 nM antigen. The protocol: as §1

B1: 8D12-1 (antibody, V domains shown)
VH: QVQLVESGGGVVQPGRSLRLSCAASGFTFSRYGIHWVRQAPGKGLEWVAVISYDGSDEYYVDSVKGRFSISRDNSKNTLYLQMNSLRPADSAVYYCVKGDLELGFDYWGQGTLVTVSS
VL: DIVMTQAAPSIPVIPGESVSMSCRSSKSLLYSNGHTYVYWFVQRPGQSPQLLIYRMSNLASGVPDRFSGSGSGTAFTLRISRVEAEDVGVYYCMQNLEFPLTFGAGTKLELK
notes: probably the same antibody as 8D12
For the molecule B1, in experiment [1], the “IC50, GDF11-inducible luciferase, A204/Smad2 cells, 0.8 nM GDF11” value (from here on “IC50 … A204/Smad2 cells, 0.8 nM GDF11”) is over 25 nM. Moreover, the “IC50, GDF8-inducible luciferase, A204/Smad2 cells, 0.8 nM GDF8” value (“IC50 … A204/Smad2 cells, 0.8 nM GDF8” below) in experiment [2] was found to be 2.4 nM. Besides, the figures for the Kd in experiment [3] and in experiment [4] were 1.87 nM and 0.66 nM, respectively. In addition, the T1/2 in experiment [3] was 23 min; in experiment [4], 95 min.

B2: 3E2-1 (antibody, V domains shown)
VH: QVQLQQWGAGLLKPSETLSLTCAVYGGSFSGYYWSWIRQPPGKGLEWIGEINHSGNTNYNPSLKSRVTISVDTSKNQFSLKLNSVTAADTAVYYCARREATVTPYFDYWGQGTLVTVSS
VL: DIQLTQSPSFLSASVGDRVTITCWASQGISSYLAWYQQKPGKAPKLLIYAASTLQSGVPSRFSGSGSGTEFTLTISSLQPEDFATYYCQQLNSYPLTFGGGTKVEIK
As to B2, in experiment [3], the affinity, expressed as Kd, was 0.7 nM and the T1/2 is 79 min. In experiment [4], this molecule registered a Kd of 2.55 nM and a T1/2 of 45 min.

B3: 22-D3 (antibody, V domains shown)
VH: QVQLVQSGGGLVKPGGSLRLSCAASGFTFSSYSMNWVRQAPGKGLEWVSSISSSSSYIYYADSVKGRFTISRDNAKNSLYLQMNSLRAEDTAVYYCARDRGYTFGVDYWGQGTTVTVSS
VL: AIQMTQSPSSLSASVGDRVTITCRASQGIRNDLGWYQQKPGKAPKRLIYAASSLQSGVPSRFSGSGSGTEFTLTISSLQPEDFATYYCLQHNSYPYTFGQGTKVEIKR
For the molecule B3, the “IC50 … A204/Smad2 cells, 0.8 nM GDF11” value in experiment [1] is over 25 nM. The “IC50 … A204/Smad2 cells, 0.8 nM GDF8” value in experiment [2] is over 20 nM. The dissociation constant Kd turned out to be 1.09 nM in experiment [3] and 1.23 nM in experiment [4]. The T1/2 in experiment [3] was 21 min; in experiment [4], 34 min.

B4: 22-E6 (antibody, V domains shown)
VH: QVQLVQSGPGLVKPSETLSLTCTVSGGSIITYSYYWGWIRQPPGKGLEWIGTIHHSGSTYYNPSLKSRVTISVDTSKNQFSLTLSSVTAADTAVYYCARDYYDSSGYYYNWFDPWGQGTMVTVSS
VL: AIQMTQSPSSLSASVGDRVTITCRASQGIRNDLGWYQQKPGKAPKRLIYAASSLQSGVPSRFSGSGSGTEFTLTISSLQPEDFATYYCLQHNSSPWTFGQGTKVEIKR
With B4, the “IC50 … A204/Smad2 cells, 0.8 nM GDF11” value in experiment [1] came out at 22.4 nM. In addition, in experiment [2], the “IC50 … A204/Smad2 cells, 0.8 nM GDF8” value amounted to 2.2 nM. Further, the dissociation constant (Kd) in experiment [3] stood at 0.12 nM; in experiment [4] it was 0.26 nM. Besides, the values for the T1/2 in experiment [3] and in experiment [4] were 87 min and 148 min, respectively.

B5: 58C8 (antibody, V domains shown)
VH: EVQLLESGGGLVQPGGSLRLSCAASGFTSITYAMSWVRQAPGKGLEWVSAISVSGTNTYYADSVKGRFTISRDKSKNMLYLQMNSLRAEDTAVYYCAKDLLHNWKYGTFDIWGQGTMVTVSS
VL: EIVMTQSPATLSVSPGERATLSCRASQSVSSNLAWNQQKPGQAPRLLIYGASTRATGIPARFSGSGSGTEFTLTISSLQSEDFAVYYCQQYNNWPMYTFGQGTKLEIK
Consider B5, for which the “IC50 … A204/Smad2 cells, 0.8 nM GDF11” value in experiment [1] is over 25 nM. Also, the “IC50 … A204/Smad2 cells, 0.8 nM GDF8” value in experiment [2] turned out to be 1.8 nM. Moreover, the results for the Kd in experiment [3] and in experiment [4] were 0.44 nM and 0.62 nM, respectively. Further, the T1/2 was 30 min in experiment [3] and 56 min in experiment [4].

B6: 9B4-3 (antibody, V domains shown)
VH: EVQLLESGGGLVQPGESLRLSCAASGFTFSSYAMNWVRQAPGKGLEWVSTISGSGGYIYYADSVKGRFTISRDNSKNTLYLQMNSLRAEDTAVYFCAKDSRYNWNYGNFDYWGQGTLVTVSS
VL: EIVMTQSPATLSVSPGERATLSCRASQNVSSNLAWNKQKPGQAPRLLIYATSTRATGVPARFSASGSGTDFALTINSLQSEDFAVYYCQQYNNWPLTFGGGTKVEIK
In the case of B6, in experiment [3], the Kd stood at 1.08 nM and the T1/2 is 32 min. In experiment [4], the Kd was determined as 1.18 nM and the T1/2 worked out at 50 min.

B7: 20B12 (antibody, V domains shown)
VH: EVQLLESGGGLVQPGGSLRLSCAGSGITFSSYAMSWVRQAPGKGLEWVSAISGNGGTTNYADSVKGRFTISRDNSKNTLYLQMNSLRAEDTAVYYCAKERILTSSWTRYGIMDVWGQGTTVTVSS
VL: EIVMTQSPATLSMSPGERATLSCRASQSVSSNLAWYQQKPGQAPRLLIYGASTRATGIPARFSGSGSGTEFTLTISSLQSEDFAVYYCQQYNNWPLTFGGGTKLEIK
Consider B7, for which the “IC50 … A204/Smad2 cells, 0.8 nM GDF11” value in experiment [1] is over 25 nM. In experiment [2], the “IC50 … A204/Smad2 cells, 0.8 nM GDF8” value is over 20 nM. Moreover, in experiment [3], the equilibrium dissociation constant (Kd) worked out at 2.08 nM and the T1/2 was found to be 2 min. Further, in experiment [4], the dissociation constant (Kd) is 0.86 nM and the T1/2 came to 39 min.

B8: 4E3-7 (antibody, V domains shown)
VH: EVQLLESGGGLVQPGGSLRLSCVASRFTFSSNAMSWVRQAPGTGLEWVSAITGSGSRTYYADSVKGRFTISRDNSKNTVYLQMNSLRGEDTAVYYCAKDQGGTWNYGDFDYWGQGTLVTVSS
VL: EIVMTQSPATLSVSPGERATLSCRASQSVSSNLAWYQQKPGQAPRLLIYGASTRATGLPARFSGSGSGTDFTLTISSLQSEDFAVYYCQQYNNWPLTFGGGTKVEIK
Take B8: the “IC50 … A204/Smad2 cells, 0.8 nM GDF11” value in experiment [1] is over 25 nM. Besides, the “IC50 … A204/Smad2 cells, 0.8 nM GDF8” value in experiment [2] turned out to be 10.4 nM. In experiment [3], binding was put at a Kd of 1.33 nM and the T1/2 is 29 min. In experiment [4], this molecule showed a Kd of 1.89 nM and a T1/2 of 27 min.

B9: 1H4-5 (antibody, V domains shown)
VH: QVQLVESGGDVVQPGRSLRLSCTASGFTFSSYGMHWVRQAPGRGLEWVAVISFDGKNKYYADSVKGRFTVSRDNSKNTLFLQMNSLRAEDTALYYCAKRIAATGYYYFYGLDVWGQGTTVTVSS
VL: EIMMTQSPATLSVSPGERGTLSCRASQSVSSNLAWYQQKPGQAPRLLIYGASTRASGIPARFSGSGSGTEFTLTVSSLQSEDFAVYYCQQYNNWPLTFGGGTKVEIK
In the case of B9, the Kd in experiment [3] came to 1.48 nM; in experiment [4], 0.95 nM. In addition, the T1/2 in experiment [3] stood at 24 min; in experiment [4] it was 54 min.

B10: 19F2 (antibody, V domains shown)
VH: QVQLVESGGGVVQPGRSLRLSCEASGFTFSSSGMHWVRQAPGKGLQWVAVISYDGNNKFYEDSVKGRLTISRDNSNNTLWLQMNSLRVEDTAVYYCAKSGGRVGAAFAYWGQGTLVTVSS
VL: DIVNTQSPLSLPVTPGEPASISCRSSQSLLYGNGYNYLDWYLQKPGHSPQLLIYLGSNRGSGVPDRFSGSGSGTDFTLKISRVEAEDVGIYYCMQTLQTPFTFGPGTKMYIK
With B10, the “IC50 … A204/Smad2 cells, 0.8 nM GDF11” value in experiment [1] is over 25 nM. In addition, in experiment [2], the “IC50 … A204/Smad2 cells, 0.8 nM GDF8” value is over 20 nM. In experiment [4], the Kd was determined as 0.5 nM and the T1/2 worked out at 38 min.

B11: 22-G10 (antibody, V domains shown)
VH: QVHLKESGPTLVKPTQTLTLTCTFSGFSLSTSGVGVGWIRQPPGKALEWLALIYWNDDKRYSPSLKSRLTITKDTSKNQVVLTMTNMDPVDTATYYCTHTSRYNWHYGFLDYWGQGTTVTVSS
VL: AIQMTQSPSSLSASVGDRVTITCRASQGISNYLAWFQQKPGKAPKSLIYAASSLQSGVPSKFSGSGSGTDFTLTISSLQPEDFATYYCQQYNSYPLTFGGGTKVEIKR
For the molecule B11, in experiment [1], the “IC50 … A204/Smad2 cells, 0.8 nM GDF11” value was over 25 nM. The “IC50 … A204/Smad2 cells, 0.8 nM GDF8” value in experiment [2] is 10.5 nM. In addition, in experiment [3], the Kd came to 0.73 nM and the T1/2 worked out at 50 min. In experiment [4], the equilibrium dissociation constant (Kd) amounted to 0.25 nM and the T1/2 turned out to be 71 min.
